Assay results published in article PMC10658565, “Polymorphic nanobody crystals as long‐acting intravitreal therapy for wet age‐related macular degeneration” (Bioengineering & Translational Medicine, 2023).

Molecular target: T1, recombinant VEGF‐A165 protein (Homo sapiens (assumed), UniProt P15692-4, strain)
T1 construct: also called vascular endothelial growth factor; source: bought: SinoBiological Co. Ltd. (Cat: HPLC‐11066‐HNAH)
Experiment: ELISA; VEGF‐A165 coated on high adsorption plates overnight at 4°C; blocked with 5% skim milk; linear gradient of 6xHis-labelled nanobodies, 1 h at 37°C; detected with HRP‐conjugated 6xHis tag antibody, TMB, 450 nm
Conditions: both partners purified

T1 sequence (P15692 whole entry, looked up, change not shown): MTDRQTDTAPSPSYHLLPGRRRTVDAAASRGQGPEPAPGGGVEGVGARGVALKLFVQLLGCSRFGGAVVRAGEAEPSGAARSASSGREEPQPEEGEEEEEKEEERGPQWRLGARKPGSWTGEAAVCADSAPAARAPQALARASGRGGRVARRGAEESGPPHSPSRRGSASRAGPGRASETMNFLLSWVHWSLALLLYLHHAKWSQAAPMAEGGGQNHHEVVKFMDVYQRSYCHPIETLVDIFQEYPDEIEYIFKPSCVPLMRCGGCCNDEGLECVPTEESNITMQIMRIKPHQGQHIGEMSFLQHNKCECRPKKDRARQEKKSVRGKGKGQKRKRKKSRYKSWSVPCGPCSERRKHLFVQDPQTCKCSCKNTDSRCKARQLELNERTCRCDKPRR

Row | binding result | Binder
1 | binds | mNb‐WT (VHH, also in PDB 8IIU (crystal of the protein without label); The 6xHis-labelled form was used for the ELISA; crystals were grown from protein without label; also called model anti‐VEGF nanobody; model nanobody mNb‐WT) VHH: DVQLVESGGGLVQPGGSLRLSCAASGRTFSSYSMGWFRQAPGKEREFVVAISKGGYKYDAVSLEGRFTISRDNAKNTVYLQINSLRPEDTAVYYCASSRAYGSSRLRLADTYEYWGQGTLVTVSS
2 | binds | Mutant 4 (Y95F mutation) (VHH, as the chain of m1 with Y95F) VHH: DVQLVESGGGLVQPGGSLRLSCAASGRTFSSYSMGWFRQAPGKEREFVVAISKGGYKYDAVSLEGRFTISRDNAKNTVYLQINSLRPEDTAVYFCASSRAYGSSRLRLADTYEYWGQGTLVTVSS
3 | binds | Mutant 7 (Q14N mutation) (VHH, as the chain of m1 with Q14N; also in PDB 8IJS (crystal of the protein without label)) VHH: DVQLVESGGGLVNPGGSLRLSCAASGRTFSSYSMGWFRQAPGKEREFVVAISKGGYKYDAVSLEGRFTISRDNAKNTVYLQINSLRPEDTAVYYCASSRAYGSSRLRLADTYEYWGQGTLVTVSS
4 | binds | Mutant 2 (E45A mutation) (VHH, as the chain of m1 with E45A; also in PDB 8IJZ (crystal of the protein without label)) VHH: DVQLVESGGGLVQPGGSLRLSCAASGRTFSSYSMGWFRQAPGKAREFVVAISKGGYKYDAVSLEGRFTISRDNAKNTVYLQINSLRPEDTAVYYCASSRAYGSSRLRLADTYEYWGQGTLVTVSS
5 | binds | Mutant 3 (K44A/E45A mutation) (VHH, as the chain of m1 with K44A and E45A) VHH: DVQLVESGGGLVQPGGSLRLSCAASGRTFSSYSMGWFRQAPGAAREFVVAISKGGYKYDAVSLEGRFTISRDNAKNTVYLQINSLRPEDTAVYYCASSRAYGSSRLRLADTYEYWGQGTLVTVSS
6 | binds | Mutant 6 (S8A mutation) (VHH, as the chain of m1 with S8A) VHH: DVQLVEAGGGLVQPGGSLRLSCAASGRTFSSYSMGWFRQAPGKEREFVVAISKGGYKYDAVSLEGRFTISRDNAKNTVYLQINSLRPEDTAVYYCASSRAYGSSRLRLADTYEYWGQGTLVTVSS
7 | binds | Mutant 1 (K44A mutation) (VHH, as the chain of m1 with K44A) VHH: DVQLVESGGGLVQPGGSLRLSCAASGRTFSSYSMGWFRQAPGAEREFVVAISKGGYKYDAVSLEGRFTISRDNAKNTVYLQINSLRPEDTAVYYCASSRAYGSSRLRLADTYEYWGQGTLVTVSS
8 | binds | Mutant 5 (Q118N mutation) (VHH, as the chain of m1 with Q118N) VHH: DVQLVESGGGLVQPGGSLRLSCAASGRTFSSYSMGWFRQAPGKEREFVVAISKGGYKYDAVSLEGRFTISRDNAKNTVYLQINSLRPEDTAVYYCASSRAYGSSRLRLADTYEYWGNGTLVTVSS
